Data on one molecule can be found in patent US20130323263A1, “SPARC ANGIOGENIC DOMAIN AND METHODS OF USE” (ABRAXIS BIOSCIENCE, LLC, priority 2010, published 2013).

For test [1], the system named is HUVEC. Kind of test: HUVEC sprout formation bead assay. It is filed as cell-based. On the procedure:
(§1) Recombinant human SPARC and genetically engineered variants were expressed and purified using HEK 293 cells maintained in hollow fiber bio-reactors. The angiogenic activity of rhSPARC and its variants was evaluated using a HUVEC tube formation assay and a HUVEC sprout formation bead assay.
(§2) In the HUVEC tube formation assay, rhSPARC was pro-angiogenic at 10 μg/mL and anti-angiogenic at 100 μg/mL. […] Additional rhSPARC variants with deletions and single/double amino acid substitutions tested in these assays included: Q3 deletion (BIO2), an inversion of the putative angiogenic domain (BIOS), a double K>Q substitution in the proposed angiogenic domain (BIO11), the genetic ablation of the putative catephsin K recognition sites (BIO8), and a proteolytic degradation product of rhSPARC. Terminal amino acid analysis indicated the angiogenic activity is localized to SEQ ID NO: 1.

The subject of test [2] is HUVEC. Kind of test: HUVEC (3-D) tube formation assay. It is filed as cell-based. Particulars: for angiogenic activity: FIG. 2. The procedure: as §1, §2

B1: rhSPARC: Recombinant human SPARC expressed and purified using HEK 293 cells (protein, UniProt P09486 18-303, looked up)
SPARC: APQQEALPDETEVVEETVAEVTEVSVGANPVQVEVGEFDDGAEETEEEVVAENPCQNHHCKHGKVCELDENNTPMCVCQDPTSCPAPIGEFEKVCSNDNKTFDSSCHFFATKCTLEGTKKGHKLHLDYIGPCKYIPPCLDSELTEFPLRMRDWLKNVLVTLYERDEDNNLLTEKQKLRVKKIHENEKRLEAGDHPVELLARDFEKNYNMYIFPVHWQFGQLDQHPIDGYLSHTELAPLRAPLIPMEHCTTRFFETCDLDNDKYIALDEWAGCFGIKQKDIDKDLVI
Consider B1, for which the “blood vessel maturity on addition of the protein” value with HUVEC [1] is “more mature blood vessels well supported by pericytes”. Also, the “angiogenic behavior over concentration” value with HUVEC [2] (HUVEC 3-D tube formation, concentrations up to 100 ug/ml, FIG. 4) is “increases as the concentration approaches 10 ug/ml and drops off as it approaches 100 ug/ml”. In addition, the angiogenic activity entry is listed as “pro-angiogenic” with HUVEC [2] (at 10 μg/mL) and “anti-angiogenic” with HUVEC [2] (at 100 μg/mL).
